Test results from article PMC11835620, “CleanCap M6 inhibits decapping of exogenously delivered IVT mRNA”.

Biological target: eIF4E (human, UniProt P06730 1-217)
Assay: EMSA; KD measured but printed only in the figure; higher affinity than M6 3'OMe; EMSA: 25 nM oligo, eIF4E 5 nM to 1.5 uM (2-fold dilutions), 100 mM NaCl, 50 mM Tris-Cl (pH and remaining components cut off in material), temperature not given
Details: protein: recombinant; (stated for spectral shift oligos); single strand

Sequence of eIF4E (P06730 whole entry): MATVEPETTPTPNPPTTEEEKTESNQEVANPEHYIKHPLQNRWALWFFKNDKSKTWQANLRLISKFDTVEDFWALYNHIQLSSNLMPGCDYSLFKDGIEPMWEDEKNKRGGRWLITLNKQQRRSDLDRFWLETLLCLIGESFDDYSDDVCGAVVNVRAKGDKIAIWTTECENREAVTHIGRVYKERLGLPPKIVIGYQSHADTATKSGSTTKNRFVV

AGGAAAUAAGAGAGAAAAGAAGAGUAAGAAGAAAUAUAAGAGC (ssRNA, 5' cap m7GpppA(2'OMe)G; A1 is 2'-O-methyl; cap m7G not in strand) [AG 3'OH cap 43-mer]
binding result: binds
